The target of experiment [1] is pMCMV-loaded H-2 L^d (mouse) (UniProt P01897).
The target in experiment [2] is QL9-loaded H-2 L^d (mouse) (UniProt P01897). Nature of the experiment: flow cytometry, direct saturation of FITC-30.5.7 Fab on peptide-loaded RMA-S L^d cells. In general terms: A flow cytometer gives signals particle by particle.
Experiment [3] concerns the target p2Ca-loaded H-2 L^d (mouse) (UniProt P01897). The experiment is described as above.
For experiment [4], the target named is SL9-loaded H-2 L^d (mouse) (UniProt P01897). The experiment is described as above.
Sequence of SL9-loaded H-2 L^d (mouse) (P01897 25-309): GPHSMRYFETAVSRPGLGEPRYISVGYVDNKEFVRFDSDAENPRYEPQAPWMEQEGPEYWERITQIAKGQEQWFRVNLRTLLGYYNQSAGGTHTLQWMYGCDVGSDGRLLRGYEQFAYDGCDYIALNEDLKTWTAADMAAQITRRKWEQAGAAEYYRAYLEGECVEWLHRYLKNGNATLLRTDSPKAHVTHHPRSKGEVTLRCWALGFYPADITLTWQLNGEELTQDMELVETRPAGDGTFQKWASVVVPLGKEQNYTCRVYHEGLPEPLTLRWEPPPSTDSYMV
In experiment [5] the target is serologically reactive H-2 L^d on RENCA cells (murine) (UniProt P01897). The experiment in a line: flow cytometry on unstimulated RENCA cells.
Sequence of serologically reactive H-2 L^d on RENCA cells (murine) (P01897 25-362): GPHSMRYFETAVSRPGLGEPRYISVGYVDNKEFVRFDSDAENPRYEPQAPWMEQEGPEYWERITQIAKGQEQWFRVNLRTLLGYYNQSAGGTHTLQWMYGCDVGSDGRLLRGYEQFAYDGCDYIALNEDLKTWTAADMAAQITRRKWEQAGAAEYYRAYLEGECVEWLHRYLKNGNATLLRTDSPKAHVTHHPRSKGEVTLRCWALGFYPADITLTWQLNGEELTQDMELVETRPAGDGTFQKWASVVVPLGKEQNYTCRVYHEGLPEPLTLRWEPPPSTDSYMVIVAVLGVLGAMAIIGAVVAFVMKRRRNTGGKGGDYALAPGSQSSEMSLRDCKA
The target in experiment [6] is unloaded H-2 L^d on RMA-S L^d cells (mouse) (UniProt P01897). Nature of the experiment: flow cytometry on RMA-S L^d cells, no peptide, bar '37 degrees'; mAb 30.5.7 then PE-labelled goat anti-mouse IgG.
Sequence of unloaded H-2 L^d on RMA-S L^d cells (mouse) (P01897 25-309): as the sequence (P01897 25-309) above
Experiment [7] deals with QL9-loaded H-2 L^d (mouse) (UniProt P01897). The experiment in a line: flow cytometry on L^d cells loaded with graded peptide concentrations.
In experiment [8] the target is p2Ca-loaded H-2 L^d (mouse) (UniProt P01897). Described as above.
Sequence of p2Ca-loaded H-2 L^d (mouse) (P01897 25-362): as the sequence (P01897 25-362) above
The target in experiment [9] is serologically reactive H-2 L^d on RENCA cells (murine) (UniProt P01897). The experiment in a line: flow cytometry on γ-IFN stimulated RENCA cells (5-50 units/ml).
The target in experiment [10] is pMCMV-loaded H-2 L^d (mouse) (UniProt P01897). The source holds these as a separate data set.
The target in experiment [11] is unloaded H-2 L^d on RMA-S L^d cells (mouse) (UniProt P01897). The experiment in a line: flow cytometry on RMA-S L^d cells, no peptide, bar '22 degrees' (the legend says 27°C); mAb 30.5.7 then PE-labelled goat anti-mouse IgG.
Experiment [12] concerns the target QL9-loaded H-2 L^d (mouse) (UniProt P01897). Nature of the experiment: flow cytometry on peptide-loaded RMA-S L^d cells; mAb 30.5.7 then PE-labelled goat anti-mouse IgG.
Experiment [13] deals with p2Ca-loaded H-2 L^d (mouse) (UniProt P01897). Described as above.
The target in experiment [14] is SL9-loaded H-2 L^d (mouse) (UniProt P01897). Described as above.
The target in another experiment is tum (mouse). The experiment is described as above.
Experiment [15] has as its target SIY-loaded H-2 K^bm3 (mouse). Nature of the experiment: flow cytometry on peptide-loaded T2 K^bm3 cells.
Experiment [16] deals with p2Ca-loaded H-2 L^d (mouse) (UniProt P01897). The experiment in a line: competition with constant FITC-30.5.7 Fab on peptide-loaded RMA-S L^d cells, flow cytometry.
The target is the same in experiment [17]. The experiment in a line: flow cytometry, serial dilutions on p2Ca-loaded RMA-S L^d cells, detection with H57-FITC.
The target in experiment [18] is QL9-loaded H-2 L^d (mouse) (UniProt P01897). The experiment in a line: flow cytometry, serial dilutions on QL9-loaded RMA-S L^d cells, detection with H57-FITC.
Experiment [19] shares this target. The experiment in a line: flow cytometry on RMA-S L^d cells loaded with 100 µM peptide; two-fold dilutions of soluble monovalent 2C TCR, detected with H57-FITC.

The results in this text go back to patent publication US20110243967A1.

A value given as a limit tells only on which side of the number the result lay.

Sequence of QL9-loaded H-2 L^d (mouse) (P01897 25-362): as above
Sequence of pMCMV-loaded H-2 L^d (mouse) (P01897 25-309): as the sequence (P01897 25-309) above
Sequence of soluble divalent 2C TCR/Ig (A2KF29 whole entry, looked up, tested part not stated): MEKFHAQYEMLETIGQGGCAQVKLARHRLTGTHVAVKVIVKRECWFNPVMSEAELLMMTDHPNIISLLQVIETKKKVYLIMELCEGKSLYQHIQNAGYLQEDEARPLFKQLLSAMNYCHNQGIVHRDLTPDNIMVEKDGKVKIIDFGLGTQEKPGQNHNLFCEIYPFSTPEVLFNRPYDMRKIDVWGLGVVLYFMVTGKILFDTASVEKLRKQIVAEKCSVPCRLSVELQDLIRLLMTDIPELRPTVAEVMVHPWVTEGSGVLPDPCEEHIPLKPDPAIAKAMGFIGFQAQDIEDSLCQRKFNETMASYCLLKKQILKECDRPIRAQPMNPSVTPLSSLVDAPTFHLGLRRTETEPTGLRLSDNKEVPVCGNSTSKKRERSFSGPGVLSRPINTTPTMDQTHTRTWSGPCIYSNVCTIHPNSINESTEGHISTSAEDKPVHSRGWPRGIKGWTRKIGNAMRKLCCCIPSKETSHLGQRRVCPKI

By Kd is commonly meant the equilibrium constant for the complex coming apart. Take FITC-labeled 30.5.7 Fab: the Kd in [1] is 4.8 nM; in experiment [2], 12.2 nM; in experiment [3] it was 5.8 nM; in experiment [4], 4.8 to 6.4 nM.
For mAb 30.5.7 (antibody), the MCF was 500 in [5], 3000 in [7], 3000 in experiment [8] and 2670 to 3040 in experiment [9]. In addition, the Mean Channel Fluorescence came to 60 in [6]; 648 in experiment [10]; 677 in the experiment with gp 70 (mouse); 347 in experiment [11]; 688 in [12]; 693 in experiment [13]. Moreover, the figures for the Mean Channel Fluorescence (in experiment [14]; with tum (mouse)) were 556 and 578, respectively.
Substance “soluble divalent 2C TCR/Ig (from UniProt A2KF29)” returned an MCF in [15] of 36.
A word on the EC50 (read off the curve): it is the concentration at which the effect is half-maximal. A high value points to a need for much substance. In [16], soluble monovalent 2C TCR yielded a Kapp greater than 2000 nM and a Kd greater than 2000 nM. The concentration required to detect binding in experiment [17] was greater than 3000 nM. The concentration required to detect binding in experiment [18] is greater than 100 nM. The EC50 (read off the curve) in experiment [19] was 300 nM.
